Measured values: paper PMC8580825, “Scaffolding protein CcmM directs multiprotein phase separation in β-carboxysome biogenesis” (Nature Structural & Molecular Biology, 2021)

B1: γCAL domain of M58 (residues 1-198) (domain or fragment, Synechococcus elongatus PCC 7942, UniProt Q03513 1-198, looked up)
chain: MPSPTTVPVATAGRLAEPYIDPAAQVHAIASIIGDVRIAAGVRVAAGVSIRADEGAPFQVGKESILQEGAVIHGLEYGRVLGDDQADYSVWIGQRVAITHKALIHGPAYLGDDCFVGFRSTVFNARVGAGSVIMMHALVQDVEIPPGRYVPSGAIITTQQQADRLPEVRPEDREFARHIIGSPPVIVRSTPAATADFH
notes: also called γCAL198; source: E. coli BL21 (DE3), purified (Ni-NTA, H6Ub cleaved, SEC); not shown: His6-ubiquitin, N-terminal, cleaved

Columns and labels:
[1] = target: SeM58-R252D (Synechococcus elongatus PCC 7942) (UniProt Q03513); test: SEC-MALS; 2 mg/ml protein; 50 mM Tris-HCl pH 8.0/150 mM KCl or 50 mM Tris-HCl pH 8.0/500 mM KCl/5 mM DTT; 25 °C; oligomeric state in solution
[2] = target: SeM58-R298D (Synechococcus elongatus PCC 7942) (UniProt Q03513); test: as above
[3] = target: SeM58-R367D (Synechococcus elongatus PCC 7942) (UniProt Q03513); test: as above
[4] = target: SeM58-R481D (Synechococcus elongatus PCC 7942) (UniProt Q03513); test: as above
[5] = target: SeM58-R251D (Synechococcus elongatus PCC 7942) (UniProt Q03513); test: as above
[6] = target: the molecule itself; test: as above
[7] = target: B1; test: ITC; EGFPC2_(17) (365 μM) in the syringe titrated into γCAL(1–198) (14 μM); 20 °C; 50 mM Tris pH 8.0/100 mM KCl/10 mM Mg(OAc)2; one-site binding model; details: both partners purified

Row | Molecule | stoichiometry N [6] | also measured
1 | SeM58-R252D (from UniProt Q03513 1-539) (natural protein) |  | stoichiometry N [1]: 3
2 | SeM58-R298D (from UniProt Q03513 1-539) (natural protein) |  | stoichiometry N [2]: 3
3 | SeM58-R367D (from UniProt Q03513 1-539) (natural protein) |  | stoichiometry N [3]: 3
4 | SeM58-R481D (from UniProt Q03513 1-539) (natural protein) |  | stoichiometry N [4]: 3
5 | SeM58-R251D (from UniProt Q03513 1-539) (natural protein) |  | stoichiometry N [5]: 3
6 | SeM58-E303K (natural protein, Synechococcus elongatus PCC 7942, UniProt Q03513 1-539, looked up, CcmM (M58), Synechococcus elongatus PCC 7942, point mutant in SSUL1; source: E. coli BL21 (DE3), purified as wild-type M58; not shown: His6-ubiquitin, N-terminal, cleaved) MPSPTTVPVATAGRLAEPYIDPAAQVHAIASIIGDVRIAAGVRVAAGVSIRADEGAPFQVGKESILQEGAVIHGLEYGRVLGDDQADYSVWIGQRVAITHKALIHGPAYLGDDCFVGFRSTVFNARVGAGSVIMMHALVQDVEIPPGRYVPSGAIITTQQQADRLPEVRPEDREFARHIIGSPPVIVRSTPAATADFHSTPTPSPLRPSSSEATTVSAYNGQGRLSSEVITQVRSLLNQGYRIGTEHADKRRFRTSSWQPCAPIQSTNERQVLSELENCLSEHEGEYVRLLGIDTNTRSRVFKALIQRPDGSVPESLGSQPVAVASGGGRQSSYASVSGNLSAEVVNKVRNLLAQGYRIGTEHADKRRFRTSSWQSCAPIQSSNERQVLAELENCLSEHEGEYVRLLGIDTASRSRVFEALIQDPQGPVGSAKAAAAPVSSATPSSHSYTSNGSSSSDVAGQVRGLLAQGYRISAEVADKRRFQTSSWQSLPALSGQSEATVLPALESILQEHKGKYVRLIGIDPAARRRVAELLIQKP | 3 | 
7 | SeM58-D35K (natural protein, Synechococcus elongatus PCC 7942, UniProt Q03513 1-539, looked up, CcmM (M58), Synechococcus elongatus PCC 7942, point mutant in the γCAL domain; source: E. coli BL21 (DE3), purified as wild-type M58; not shown: His6-ubiquitin, N-terminal, cleaved) MPSPTTVPVATAGRLAEPYIDPAAQVHAIASIIGKVRIAAGVRVAAGVSIRADEGAPFQVGKESILQEGAVIHGLEYGRVLGDDQADYSVWIGQRVAITHKALIHGPAYLGDDCFVGFRSTVFNARVGAGSVIMMHALVQDVEIPPGRYVPSGAIITTQQQADRLPEVRPEDREFARHIIGSPPVIVRSTPAATADFHSTPTPSPLRPSSSEATTVSAYNGQGRLSSEVITQVRSLLNQGYRIGTEHADKRRFRTSSWQPCAPIQSTNERQVLSELENCLSEHEGEYVRLLGIDTNTRSRVFEALIQRPDGSVPESLGSQPVAVASGGGRQSSYASVSGNLSAEVVNKVRNLLAQGYRIGTEHADKRRFRTSSWQSCAPIQSSNERQVLAELENCLSEHEGEYVRLLGIDTASRSRVFEALIQDPQGPVGSAKAAAAPVSSATPSSHSYTSNGSSSSDVAGQVRGLLAQGYRISAEVADKRRFQTSSWQSLPALSGQSEATVLPALESILQEHKGKYVRLIGIDPAARRRVAELLIQKP | 3 | 
8 | SeM58-D21K (natural protein, Synechococcus elongatus PCC 7942, UniProt Q03513 1-539, looked up, CcmM (M58), Synechococcus elongatus PCC 7942, point mutant in the γCAL domain; source: E. coli BL21 (DE3), purified as wild-type M58; not shown: His6-ubiquitin, N-terminal, cleaved) MPSPTTVPVATAGRLAEPYIKPAAQVHAIASIIGDVRIAAGVRVAAGVSIRADEGAPFQVGKESILQEGAVIHGLEYGRVLGDDQADYSVWIGQRVAITHKALIHGPAYLGDDCFVGFRSTVFNARVGAGSVIMMHALVQDVEIPPGRYVPSGAIITTQQQADRLPEVRPEDREFARHIIGSPPVIVRSTPAATADFHSTPTPSPLRPSSSEATTVSAYNGQGRLSSEVITQVRSLLNQGYRIGTEHADKRRFRTSSWQPCAPIQSTNERQVLSELENCLSEHEGEYVRLLGIDTNTRSRVFEALIQRPDGSVPESLGSQPVAVASGGGRQSSYASVSGNLSAEVVNKVRNLLAQGYRIGTEHADKRRFRTSSWQSCAPIQSSNERQVLAELENCLSEHEGEYVRLLGIDTASRSRVFEALIQDPQGPVGSAKAAAAPVSSATPSSHSYTSNGSSSSDVAGQVRGLLAQGYRISAEVADKRRFQTSSWQSLPALSGQSEATVLPALESILQEHKGKYVRLIGIDPAARRRVAELLIQKP | 3 | 
9 | SeM58-E17K (natural protein, Synechococcus elongatus PCC 7942, UniProt Q03513 1-539, looked up, CcmM (M58), Synechococcus elongatus PCC 7942, point mutant in the γCAL domain; source: E. coli BL21 (DE3), purified as wild-type M58; not shown: His6-ubiquitin, N-terminal, cleaved) MPSPTTVPVATAGRLAKPYIDPAAQVHAIASIIGDVRIAAGVRVAAGVSIRADEGAPFQVGKESILQEGAVIHGLEYGRVLGDDQADYSVWIGQRVAITHKALIHGPAYLGDDCFVGFRSTVFNARVGAGSVIMMHALVQDVEIPPGRYVPSGAIITTQQQADRLPEVRPEDREFARHIIGSPPVIVRSTPAATADFHSTPTPSPLRPSSSEATTVSAYNGQGRLSSEVITQVRSLLNQGYRIGTEHADKRRFRTSSWQPCAPIQSTNERQVLSELENCLSEHEGEYVRLLGIDTNTRSRVFEALIQRPDGSVPESLGSQPVAVASGGGRQSSYASVSGNLSAEVVNKVRNLLAQGYRIGTEHADKRRFRTSSWQSCAPIQSSNERQVLAELENCLSEHEGEYVRLLGIDTASRSRVFEALIQDPQGPVGSAKAAAAPVSSATPSSHSYTSNGSSSSDVAGQVRGLLAQGYRISAEVADKRRFQTSSWQSLPALSGQSEATVLPALESILQEHKGKYVRLIGIDPAARRRVAELLIQKP | 3 | 
10 | SeM58-R43D (natural protein, Synechococcus elongatus PCC 7942, UniProt Q03513 1-539, looked up, CcmM (M58), Synechococcus elongatus PCC 7942, point mutant in the γCAL domain; source: E. coli BL21 (DE3), purified as wild-type M58; not shown: His6-ubiquitin, N-terminal, cleaved) MPSPTTVPVATAGRLAEPYIDPAAQVHAIASIIGDVRIAAGVDVAAGVSIRADEGAPFQVGKESILQEGAVIHGLEYGRVLGDDQADYSVWIGQRVAITHKALIHGPAYLGDDCFVGFRSTVFNARVGAGSVIMMHALVQDVEIPPGRYVPSGAIITTQQQADRLPEVRPEDREFARHIIGSPPVIVRSTPAATADFHSTPTPSPLRPSSSEATTVSAYNGQGRLSSEVITQVRSLLNQGYRIGTEHADKRRFRTSSWQPCAPIQSTNERQVLSELENCLSEHEGEYVRLLGIDTNTRSRVFEALIQRPDGSVPESLGSQPVAVASGGGRQSSYASVSGNLSAEVVNKVRNLLAQGYRIGTEHADKRRFRTSSWQSCAPIQSSNERQVLAELENCLSEHEGEYVRLLGIDTASRSRVFEALIQDPQGPVGSAKAAAAPVSSATPSSHSYTSNGSSSSDVAGQVRGLLAQGYRISAEVADKRRFQTSSWQSLPALSGQSEATVLPALESILQEHKGKYVRLIGIDPAARRRVAELLIQKP | 3 | 
11 | SeM58-R37D (natural protein, Synechococcus elongatus PCC 7942, UniProt Q03513 1-539, looked up, CcmM (M58), Synechococcus elongatus PCC 7942, point mutant in the γCAL domain; source: E. coli BL21 (DE3), purified as wild-type M58; not shown: His6-ubiquitin, N-terminal, cleaved) MPSPTTVPVATAGRLAEPYIDPAAQVHAIASIIGDVDIAAGVRVAAGVSIRADEGAPFQVGKESILQEGAVIHGLEYGRVLGDDQADYSVWIGQRVAITHKALIHGPAYLGDDCFVGFRSTVFNARVGAGSVIMMHALVQDVEIPPGRYVPSGAIITTQQQADRLPEVRPEDREFARHIIGSPPVIVRSTPAATADFHSTPTPSPLRPSSSEATTVSAYNGQGRLSSEVITQVRSLLNQGYRIGTEHADKRRFRTSSWQPCAPIQSTNERQVLSELENCLSEHEGEYVRLLGIDTNTRSRVFEALIQRPDGSVPESLGSQPVAVASGGGRQSSYASVSGNLSAEVVNKVRNLLAQGYRIGTEHADKRRFRTSSWQSCAPIQSSNERQVLAELENCLSEHEGEYVRLLGIDTASRSRVFEALIQDPQGPVGSAKAAAAPVSSATPSSHSYTSNGSSSSDVAGQVRGLLAQGYRISAEVADKRRFQTSSWQSLPALSGQSEATVLPALESILQEHKGKYVRLIGIDPAARRRVAELLIQKP | 3 | 
12 | GWLAPEQQQRIYRGNAS (the last 17 residues of CcaA, Synechococcus elongatus PCC 7942; residues 1-255 of CcaA replaced by EGFP-GSGGS; EGFP amplified from pEF-gfp (Addgene); source: E. coli BL21 (DE3), purified (Ni-NTA, H6Ub cleaved, SEC); not shown: EGFP with GSGGS linker, N-terminal, kept; His6-ubiquitin, N-terminal, cleaved) [EGFPC2_(17)] |  | Kd [7]: ~2 µM; stoichiometry N [7]: ~2.7 per γCAL198 trimer
13 | γCAL domain of M58 (residues 1-181) (domain or fragment, Synechococcus elongatus PCC 7942, UniProt Q03513 1-181, looked up, residues 1-15 disordered in the crystals; also called γCAL181; source: E. coli BL21 (DE3), purified (Ni-NTA, H6Ub cleaved, SEC); not shown: His6-ubiquitin, N-terminal, cleaved) MPSPTTVPVATAGRLAEPYIDPAAQVHAIASIIGDVRIAAGVRVAAGVSIRADEGAPFQVGKESILQEGAVIHGLEYGRVLGDDQADYSVWIGQRVAITHKALIHGPAYLGDDCFVGFRSTVFNARVGAGSVIMMHALVQDVEIPPGRYVPSGAIITTQQQADRLPEVRPEDREFARHIIG | 3 | 
14 | B1 | 3 | 
